From PMC5737217 (Nucleic Acids Research, 2017) come the findings set out here.

For one series, the target named is tSTATcc-N460H (UniProt P42224 132-713, N460H;A656C;N658C). Description: Spec-seq.
Series [1] addresses tSTATcc (truncated STAT1, C-C dimer) (UniProt P42224 132-713, A656C;N658C). In words: Spec-seq.
The series “non-reducing SDS-PAGE” concerns the molecule itself. Description: non-reducing SDS-PAGE.

Chain of tSTATcc-N460H (P42224 132-713 N460H/A656C/N658C): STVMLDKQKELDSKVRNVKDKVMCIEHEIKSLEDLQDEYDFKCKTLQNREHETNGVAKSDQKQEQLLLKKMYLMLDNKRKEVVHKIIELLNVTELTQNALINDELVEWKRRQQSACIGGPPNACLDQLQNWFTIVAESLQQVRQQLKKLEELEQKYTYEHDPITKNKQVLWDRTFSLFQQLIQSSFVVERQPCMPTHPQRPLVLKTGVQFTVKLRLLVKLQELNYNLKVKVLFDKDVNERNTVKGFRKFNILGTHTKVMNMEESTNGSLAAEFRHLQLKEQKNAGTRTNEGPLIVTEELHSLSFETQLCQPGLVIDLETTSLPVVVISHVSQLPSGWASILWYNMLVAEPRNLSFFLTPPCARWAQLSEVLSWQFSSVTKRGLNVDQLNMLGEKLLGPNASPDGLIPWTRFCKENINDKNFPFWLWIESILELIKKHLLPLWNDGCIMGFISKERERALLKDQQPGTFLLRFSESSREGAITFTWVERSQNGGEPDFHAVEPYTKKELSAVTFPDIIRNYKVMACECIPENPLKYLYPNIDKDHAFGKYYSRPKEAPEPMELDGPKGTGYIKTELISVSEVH

B1: 1C_GAS (dsDNA)
DNA 1: GCTGCCACTAGAGTTTTTTCGGGAAAAGATCATCAAGAGCACACGGG
DNA 2: CCCGTGTGCTCTTGATGATCTTTTCCCGAAAAAACTCTAGTGGCAGC
With B1, the binding signal is 1.8 kT (ddG vs 2C_GAS) with tSTATcc-N460H and 1.6 kT (ddG vs 2C_GAS) in series [1].

B2: 0T_GAS (dsDNA)
DNA 1: GCTGCCACTAGAGTTTTTTTAGGAAAAGATCATCAAGAGCACACGGG
DNA 2: CCCGTGTGCTCTTGATGATCTTTTCCTAAAAAAACTCTAGTGGCAGC
B2: the binding signal is 1.8 kT (ddG vs 2C_GAS) in the series with tSTATcc-N460H and 1.5 kT (ddG vs 2C_GAS) in series [1].

B3: 1T_GAS (dsDNA)
DNA 1: GCTGCCACTAGAGTTTTTCTAGGAAAAGATCATCAAGAGCACACGGG
DNA 2: CCCGTGTGCTCTTGATGATCTTTTCCTAGAAAAACTCTAGTGGCAGC
As to B3, the binding signal (in the series with tSTATcc-N460H; in series [1]) was 1.7 kT (ddG vs 2C_GAS) throughout.

B4: 2T_GAS (dsDNA)
DNA 1: GCTGCCACTAGAGTTTTCCTAGGAAAAGATCATCAAGAGCACACGGG
DNA 2: CCCGTGTGCTCTTGATGATCTTTTCCTAGGAAAACTCTAGTGGCAGC
On to B4, for which the binding signal in the series with tSTATcc-N460H is 1.7 kT (ddG vs 2C_GAS); in series [1] it was 1.9 kT (ddG vs 2C_GAS).

B5: 3C_GAS (dsDNA)
DNA 1: GCTGCCACTAGAGTTTTCCCGGGAAAAGATCATCAAGAGCACACGGG
DNA 2: CCCGTGTGCTCTTGATGATCTTTTCCCGGGAAAACTCTAGTGGCAGC
With B5, the binding signal (with tSTATcc-N460H; in series [1]) was 1.6 kT (ddG vs 2C_GAS) in each case.

B6: tSTATcc (truncated STAT1α, amino acids 132–713, with A656C and N658C) (domain or fragment, UniProt P42224 132-713, looked up)
chain: STVMLDKQKELDSKVRNVKDKVMCIEHEIKSLEDLQDEYDFKCKTLQNREHETNGVAKSDQKQEQLLLKKMYLMLDNKRKEVVHKIIELLNVTELTQNALINDELVEWKRRQQSACIGGPPNACLDQLQNWFTIVAESLQQVRQQLKKLEELEQKYTYEHDPITKNKQVLWDRTFSLFQQLIQSSFVVERQPCMPTHPQRPLVLKTGVQFTVKLRLLVKLQELNYNLKVKVLFDKDVNERNTVKGFRKFNILGTHTKVMNMEESTNGSLAAEFRHLQLKEQKNAGTRTNEGPLIVTEELHSLSFETQLCQPGLVIDLETTSLPVVVISNVSQLPSGWASILWYNMLVAEPRNLSFFLTPPCARWAQLSEVLSWQFSSVTKRGLNVDQLNMLGEKLLGPNASPDGLIPWTRFCKENINDKNFPFWLWIESILELIKKHLLPLWNDGCIMGFISKERERALLKDQQPGTFLLRFSESSREGAITFTWVERSQNGGEPDFHAVEPYTKKELSAVTFPDIIRNYKVMACECIPENPLKYLYPNIDKDHAFGKYYSRPKEAPEPMELDGPKGTGYIKTELISVSEVH
Take B6: in the series “non-reducing SDS-PAGE”, the stoichiometry N (usually the number of molecules, sites or subunits per partner or assembly) turned out to be 2.
